From US20230031262A1, “TREATMENT OF MILD TRAUMATIC BRAIN INJURY” (OXEIA BIOPHARMACEUTICALS, INC., priority 2019, published 2023)
Where no end group is shown, it is not given here. The star is where a group is joined. Octanoyl = CCCCCCCC(=O)*

Columns and labels:
[1] = in vivo; cited from earlier work
[2] = in vivo; cited from earlier work; remark: listed apart in the source
[3] = in vivo; cited from earlier work; remark: listed apart in the source
[4] = stability of reconstituted OXE-103 drug product on storage; type: physicochemical; details: reconstituted OXE-103 for SC administration 14 mg in 5 mL multi-use vials
Method: OXE-103 drug product, placebo, and diluent are stored refrigerated between 2° C. to 8° C. (35.6° F. to 46.4° F.). Reconstituted OXE-103 for SC administration 14 mg (in 5 mL multi-use vials) is stable for up to 14 days at 10° C. or for up to 3 days when stored at 25° C./1000 Lux. The reconstituted drug product (and placebo) is stored refrigerated at 2° C. to 8° C. (35.6° F. to 46.4° F.).

For “ghrelin (GSS(Octanoyl)FLSPEHQRVQQRKESKKPPAKLQPR; UniProt Q9UBU3 24-51, looked up) [OXE-103, naturally occurring peptide comprising 28 amino acids that include an N-octanoyl group at the 3-position of serine]”, the serum half-life [1] is given as “about 30 minutes”, the “adverse effects of long term use” value [2] is given as “increased appetite, weight gain, and adiposity” and the safety [3] is given as “quite safe”. For the same substance, the “stable for up to (reconstituted, storage time)” value ([4]; at 10° C.) was “up to 14 days” and the “stable for up to (reconstituted, storage time)” value ([4]; stored at 25° C./1000 Lux) was “up to 3 days”.
